Measured values taken from IntAct's records for PubMed 18723617.

B1: Motility protein B (Salmonella typhimurium), P55892 (parent)
chain: MKNQAHPIVVVKRRRHKPHGGGAHGSWKIAYADFMTAMMAFFLVMWLISISSPKELIQIAEYFRTPLATAVTGGNRIANSESPIPGGGDDYTQQQGEVEKQPNIDELKKRMEQSRLNKLRGDLDQLIESDPKLRALRPHLKIDLVQEGLRIQIIDSQNRPMFKTGSAEVEPYMRDILRAIAPVLNGIPNRISLAGHTDDFPYANGEKGYSNWELSADRANASRRELVAGGLDNGKVLRVVGMAATMRLSDRGPDDAINRRISLLVLNKQAEQAILHENAESQNEPVSVLQQPAAAPPASVPTSPKAEPR
partner: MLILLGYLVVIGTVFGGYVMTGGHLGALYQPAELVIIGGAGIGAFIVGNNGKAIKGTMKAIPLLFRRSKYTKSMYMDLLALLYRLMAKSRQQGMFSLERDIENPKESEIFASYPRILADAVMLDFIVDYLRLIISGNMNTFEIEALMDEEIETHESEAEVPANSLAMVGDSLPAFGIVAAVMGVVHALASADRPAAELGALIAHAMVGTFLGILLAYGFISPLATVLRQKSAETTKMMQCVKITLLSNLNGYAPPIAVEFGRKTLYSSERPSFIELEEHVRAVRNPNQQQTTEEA

Variants of: B1
Settings: with mota_salty motA

Variant | effect of a mutation on the interaction
D33E | decreasing interaction strength
